{
  "source": "paper PMC8999711",
  "molecular_target": "ActR-IIB extracellular domain (type II receptor ectodomain) (UniProt Q13705)",
  "sequence (Q13705 19-137)": "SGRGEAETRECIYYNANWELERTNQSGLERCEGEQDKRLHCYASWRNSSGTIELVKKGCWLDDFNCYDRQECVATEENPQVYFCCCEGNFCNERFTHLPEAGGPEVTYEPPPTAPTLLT",
  "assay": "SPR; Reichert4SPR; biotinylated receptor ectodomains immobilised on a streptavidin-coated CMD200 chip (350-500 RU); BMP2 ligands as analytes, six concentrations from 160 nM (log 2 dilution series); 25 °C; 10 mM HEPES pH 7.4, 500 mM NaCl, 3.4 mM EDTA, 0.005% Tween-20; 10 μL/min; 1:1 Langmuir global fit; apparent KD, mean of two independent experiments",
  "data": [
    {"substance": "BMP2 Azide (BMP2 variant with H-L-Lys(EO-N3)-OH at position 83 of each chain) (ligand)", "values": [
      {"measurement": "Kd", "value": 11.6, "unit": "nM"}
    ]}
  ]
}
